According to US20240270821A1, “GIP/GLP1/GCG TRI-RECEPTOR AGONISTS AND USES THEREOF” (priority 2023, published 2024):

T1: human GIP receptor (human) (UniProt P48546)
T1 sequence (looked up): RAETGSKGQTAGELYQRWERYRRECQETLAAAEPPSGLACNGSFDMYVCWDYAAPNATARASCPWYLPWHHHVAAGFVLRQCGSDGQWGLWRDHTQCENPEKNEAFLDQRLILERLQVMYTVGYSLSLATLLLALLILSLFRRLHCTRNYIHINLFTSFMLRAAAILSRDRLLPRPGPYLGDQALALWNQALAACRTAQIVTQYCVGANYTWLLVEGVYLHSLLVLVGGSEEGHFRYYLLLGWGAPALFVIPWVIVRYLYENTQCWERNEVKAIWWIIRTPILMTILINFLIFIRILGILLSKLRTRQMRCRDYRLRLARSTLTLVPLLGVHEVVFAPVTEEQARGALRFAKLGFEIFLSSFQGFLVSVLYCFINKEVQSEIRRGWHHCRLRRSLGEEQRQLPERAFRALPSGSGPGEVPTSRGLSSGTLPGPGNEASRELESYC


Key:
Assay in all cases: cell-based or functional assay
[1] = target: hGLP-1R (Homo sapiens, UniProt P43220)
[2] = target: T1, human GIP receptor (human)
[3] = target: human glucagon receptor (human) (UniProt P47871)
Sequence of human glucagon receptor (human) (P47871 26-477): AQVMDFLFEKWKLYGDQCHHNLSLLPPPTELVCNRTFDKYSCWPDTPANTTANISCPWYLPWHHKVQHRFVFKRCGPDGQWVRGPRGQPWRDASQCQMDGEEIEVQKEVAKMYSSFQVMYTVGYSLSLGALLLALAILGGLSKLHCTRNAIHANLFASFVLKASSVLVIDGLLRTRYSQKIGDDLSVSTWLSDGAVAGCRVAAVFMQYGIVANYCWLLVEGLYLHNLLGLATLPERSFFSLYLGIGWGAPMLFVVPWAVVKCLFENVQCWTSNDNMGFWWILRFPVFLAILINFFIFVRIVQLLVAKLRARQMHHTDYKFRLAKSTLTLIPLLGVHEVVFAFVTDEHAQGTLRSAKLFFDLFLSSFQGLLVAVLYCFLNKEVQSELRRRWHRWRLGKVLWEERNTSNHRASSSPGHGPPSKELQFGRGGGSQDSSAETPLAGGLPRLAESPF

Sequence of hGLP-1R (P43220 24-463): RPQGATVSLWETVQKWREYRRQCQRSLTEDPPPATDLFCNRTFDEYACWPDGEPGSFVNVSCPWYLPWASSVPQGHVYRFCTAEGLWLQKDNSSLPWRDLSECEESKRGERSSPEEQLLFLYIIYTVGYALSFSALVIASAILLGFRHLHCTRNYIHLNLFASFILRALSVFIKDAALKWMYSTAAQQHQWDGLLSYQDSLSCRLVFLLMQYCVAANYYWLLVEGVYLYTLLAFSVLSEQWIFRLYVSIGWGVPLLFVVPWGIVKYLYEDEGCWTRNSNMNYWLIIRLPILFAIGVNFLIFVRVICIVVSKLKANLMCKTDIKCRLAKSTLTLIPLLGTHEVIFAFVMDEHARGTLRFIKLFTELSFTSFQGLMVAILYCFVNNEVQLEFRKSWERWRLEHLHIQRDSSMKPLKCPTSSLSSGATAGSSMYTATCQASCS

| Binder | Relative cAMP EC50 [1] [nM] | cAMP Rel EC50 (in the presence of 1% HSA) [1] [nM] | Relative cAMP EC50 [2] [nM] | cAMP Rel EC50 (in the presence of 1% HSA) [2] [nM] | Relative cAMP EC50 [3] [nM] | cAMP Rel EC50 (in the presence of 1% HSA) [3] [nM] | cAMP Rel EC50, nM (in the presence of 1% HSA) [1] [nM] | cAMP Rel EC50, nM (in the presence of 1% HSA) [2] [nM] | cAMP Rel EC50, nM (in the presence of 1% HSA) [3] [nM] |
| --- | --- | --- | --- | --- | --- | --- | --- | --- | --- |
| YXQGTFTSDFSXXLDKKAQXAFIEWLLEAGSSSGAPPPSGT (C-terminal amide; lysine acylated with AEEA-γ-Glu-C18 diacid; synthetic construct; SITE 2: note = 2-Aminoisobutyric Acid; SITE 12: note = L-ornithine; SITE 13: note = alpha-methyl-leucine; SITE 17: note = Lysine is chemically modified through conjugation of the epsilon-amino group of the Lysine side chain with (2-[2-(2-Amino-ethoxy)-ethoxy]-acetyl)-(gamma-Glu)) [Example 263] | 1.32 | 257 | 0.169 | 25.7 | 7.53 | 893 | – | – | – |
| YXQGTFTSDXSXXLDKKAQXAFIEYLLEAGPSSGAPPPSGX (non-natural residues; lipidated Lys; C-terminal amide; synthetic construct; SITE 2: note = 2-Aminoisobutyric Acid; SITE 10: note = 3-(4-Pyridyl)-L-alanine; SITE 12: note = L-ornithine; SITE 13: note = alpha-methyl-leucine; SITE 17: note = Lysine is chemically modified through conjugation of the epsilon-amino group of the Lysine side chain with (2-[2-(2-) [Example 274] | 4.9 | 560 | 0.296 | 27.6 | 9.37 | 1120 | – | – | – |
| YXQGTFTSDFSXXLDKKAQXAFIEWLLEGGHSSGAPPPGGE (Aib, Orn, αMeL; lipidated Lys; C-terminal amide; synthetic construct; SITE 2: note = 2-Aminoisobutyric Acid; SITE 12: note = L-ornithine; SITE 13: note = alpha-methyl-leucine; SITE 17: note = Lysine is chemically modified through conjugation of the epsilon-amino group of the Lysine side chain with (2-[2-(2-Amino-ethoxy)-ethoxy]-acetyl)2-(gamma-Glu)) [Example 271] | 5 | 887 | 0.152 | 15.7 | 8.51 | 2680 | – | – | – |
| YXQGTFTSDFSXXLDKKAQXAFIEWLLEGGXSSGAPPPSGE (Aib, Orn, αMeL, 4Pal; AEEA-γGlu-C18 diacid on Lys; amide; synthetic construct; SITE 2: note = 2-Aminoisobutyric Acid; SITE 12: note = L-ornithine; SITE 13: note = alpha-methyl-leucine; SITE 17: note = Lysine is chemically modified through conjugation of the epsilon-amino group of the Lysine side chain with (2-[2-(2-Amino-ethoxy)-ethoxy]-acetyl)-(gamma-Glu)) [Example 267] | 5.86 | 1020 | 0.279 | 55.5 | 5.74 | 1380 | – | – | – |
| YXQGTFTSDXSXXLDKKAQXAFIEYLLEAGPSSXAPPPSGT (Aib, 4Pal, Orn, αMeL, D-Ala; acylated Lys; C-terminal amide; synthetic construct; SITE 2: note = 2-Aminoisobutyric Acid; SITE 10: note = 3-(4-Pyridyl)-L-alanine; SITE 12: note = L-ornithine; SITE 13: note = alpha-methyl-leucine; SITE 17: note = Lysine is chemically modified through conjugation of the epsilon-amino group of the Lysine side chain with (2-[2-(2-) [Example 275] | 4.93 | 692 | 0.318 | 27.7 | 7.8 | 882 | – | – | – |
| YXQGTFTSDFSKXLDKKAQXAFIEYLLEGGESSGAPPPSGS (synthetic construct; SITE 2: note = 2-Aminoisobutyric Acid; SITE 13: note = alpha-methyl-leucine; SITE 17: note = Lysine is chemically modified through conjugation of the epsilon-amino group of the Lysine side chain with (2-[2-(2-Amino-ethoxy)-ethoxy]-acetyl)-(gamma-Glu)-CO-(CH2) 16-CO2H; SITE 20: n) [Example 146] | – | – | – | – | – | – | 678 | 74.6 | 463 |
| YXQGTFTSDFSXXLDKKAQXAFIEYLLEXGPSSGAPPPSGX (acylated Lys γGlu-AEEA-γGlu-C18 diacid; non-natural residues; amide; synthetic construct; SITE 2: note = 2-Aminoisobutyric Acid; SITE 12: note = L-ornithine; SITE 13: note = alpha-methyl-leucine; SITE 17: note = Lysine is chemically modified through conjugation of the epsilon-amino group of the Lysine side chain with (gamma-Glu)-(2-[2-(2-Amino-ethoxy)-ethoxy]-acetyl)) [Example 277] | 5.56 | 639 | 0.0672 | 13.3 | 10.6 | 1690 | – | – | – |
| YXQGTFTSDFSXXLDKKAQXAFIEWLLEGGHSSGAPPPSGH (Aib, Orn, αMeL; K acylated AEEA-γGlu-C18 diacid; C-terminal amide; synthetic construct; SITE 2: note = 2-Aminoisobutyric Acid; SITE 12: note = L-ornithine; SITE 13: note = alpha-methyl-leucine; SITE 17: note = Lysine is chemically modified through conjugation of the epsilon-amino group of the Lysine side chain with (2-[2-(2-Amino-ethoxy)-ethoxy]-acetyl)-(gamma-Glu)) [Example 269] | 3.23 | 428 | 0.288 | 21.9 | 7.69 | 1100 | – | – | – |
| YXQGTFTSDFSXXLDKKAQXAFIEWLLEGGSSSGAPPPGGT (Aib, Orn, αMeL; acylated lysine; amide; synthetic construct; SITE 2: note = 2-Aminoisobutyric Acid; SITE 12: note = L-ornithine; SITE 13: note = alpha-methyl-leucine; SITE 17: note = Lysine is chemically modified through conjugation of the epsilon-amino group of the Lysine side chain with (2-[2-(2-Amino-ethoxy)-ethoxy]-acetyl)-(gamma-Glu)) [Example 272] | 2.62 | 486 | 0.254 | 36.3 | 7.91 | 1540 | – | – | – |
| YXQGTFTSDFSXXLDKKAQXAFIEWLLEGGXSSGAPPPSGT (non-natural residues, C-terminal amide, acylated Lys with fatty diacid; synthetic construct; SITE 2: note = 2-Aminoisobutyric Acid; SITE 12: note = L-ornithine; SITE 13: note = alpha-methyl-leucine; SITE 17: note = Lysine is chemically modified through conjugation of the epsilon-amino group of the Lysine side chain with (2-[2-(2-Amino-ethoxy)-ethoxy]-acetyl)-(gamma-Glu)) [Example 268] | 3.14 | 437 | 0.274 | 33.7 | 7.69 | 1300 | – | – | – |
| YXQGTFTSDFSXXLDKKAQXAFIEWLLEGGSSSGAPPPSGH (Aib, Orn, αMeL; K acylated AEEA-γGlu-C18 diacid; C-amide; synthetic construct; SITE 2: note = 2-Aminoisobutyric Acid; SITE 12: note = L-ornithine; SITE 13: note = alpha-methyl-leucine; SITE 17: note = Lysine is chemically modified through conjugation of the epsilon-amino group of the Lysine side chain with (2-[2-(2-Amino-ethoxy)-ethoxy]-acetyl)-(gamma-Glu)) [Example 270] | 3.2 | 658 | 0.26 | 36.5 | 5 | 1060 | – | – | – |
| YXQGTFTSDFSXXLDKKAQXAFIEWLLEGGHSSGAPPPGGE (Aib, Orn, alpha-methyl-Leu, lipidated Lys, C-terminal amide; synthetic construct; SITE 2: note = 2-Aminoisobutyric Acid; SITE 12: note = L-ornithine; SITE 13: note = alpha-methyl-leucine; SITE 17: note = Lysine is chemically modified through conjugation of the epsilon-amino group of the Lysine side chain with (2-[2-(2-Amino-ethoxy)-ethoxy]-acetyl)-(gamma-Glu)) [Example 273] | 4.02 | 516 | 0.243 | 21.8 | 6.96 | 1770 | – | – | – |
